Measurements as given in US10588972B2, “Phthalocyanine probes and uses thereof” (LI-COR, INC., priority 2014, dated 2020).
Where “and” joins values, the source holds several entries; their conditions need not be identical. Identical values can stand only once. Like-named read-outs stand apart in the source and are kept apart here.

What was measured:
Type in all cases: cell-based
[1] = tested on: A431 cells; assay: Photodynamic therapy effect on cell morphology and viability (Example 3); settings: for effect on cell morphology: probe 0.25 μM
Description: This example illustrates the effect of photodynamic therapy based on IRDye® 700DX dye conjugates on cell morphology. Other methods for evaluating changes in morphology during the PDT with additional tests of key apoptotic markers including caspase 3/7, annexin-V, vitality %, mitochondrial potential, localization (intracellular/membrane, endosomal, lysosomal), singlet oxygen generation, other radicals, etc. It was critical to identify important parameters for generating reproducible effects including irradiation level, incubation time, probe type and/or required dose to initiate cytotoxicity. By measuring these key indicators the actions of IRDye® 700DX in its ability to induce cytotoxicity was defined.
FIGS. 6A-6B provide images of the controls which were A431 cells with no irradiation (NI) or with irradiation (I). The probe dose for the respective treatments was 0.25 μM and irradiation level was 16 J/cm^2. […] These are key features of cells undergoing apoptosis and/or necrosis.

[2] = tested on: HTB-186 cells; assay: Caspase 3/7 assay (Example 10, Table 8); settings: 32 J/cm^2, probe about 5 hours, 20 hours post irradiation; 700DX-RGD and 700DX-EGF 500 nM
Procedure: (§1) This example illustrates the ability of IRDye® 700DX small molecule conjugates to induce apoptosis in cells, e.g., cancer cells. In this study HTB-186 cells (a desmoplastic cerebellar medulloblastoma cell line) were treated with IRDye® 700DX small molecule conjugates (IRDye® 700DX labeled chlorotoxin, anti-EGFR Affibody®, RGD peptide and EGF ligand). Apoptosis was measured by evaluating caspase 3/7 activity and mitochondrial membrane potential. […]
The caspase 3/7 assay was used to measure caspase 3/7 activity in the cells from the treatments listed above. […] Upon activation, the caspases cleave the substrate, and in turn, a fluorescence signal is emitted. […] The fluorescence can be detected by, for example, flow cytometry, fluorescence microscopy, and fluorescence-based image cytometry.
To determine whether the treated cells are undergoing apoptosis, a caspase 3/7 assay and mitochondrial potential assay were performed. […] Table 8 below provides cells number, % viability, JC-1% shift, and % late apoptotic and dead cells as determined by caspase 3/7 assay.

[3] = tested on: A431 cells
Procedure: A different LED source was tested and evaluated to determine if a second source of LED would yield a similar effect as the standard LED used. A straight forward evaluation was set up with four treatments (treatments A-D). The tests were performed in triplicate in order to examine reproducibility. The test included the following four treatments: treatment A of no probe and irradiation, treatment B of IRdye® 700DX-labeled EGF and no irradiation, treatment C of IRDye® 700DX-labeled EGF and irradiation, and treatment D of IRDye® 700DX-labeled panitumumab and irradiation. The probe dose was about 0.1 μM labeled panitumumab and 0.5 μM 700DX-labeled EGF. Irradiation was for 10 minutes at an irradiation dose of 32 J/cm^2.
Significant and similar effects for both probes together and in triplicate thus providing clear evidence that IRDye® 700DX-labeled small protein can kill cells similarly to an IRDye 700DX-labeled antibody. Conditions for use of either probe may be unique to the individual probe. […] The fluorescent scale of the 700 nm images was the same for both treated sets of cells (FIGS. 12C-12D). Although the exact concentration of the antibody probe is not known, the signals from the different probes appear similar in level and intensity.

[4] = tested on: A431 cells; assay: Cytotoxicity and localization of antibody probe versus small protein ligand probe after irradiation (Example 4)
Procedure: Both probes can bind EGFR and had approximately 2 dye molecule per conjugate molecule. It was assumed that the affinity for the receptor will be different for the antibody (generally pM), compared to the small protein (nM). Although the probe doses were different, the incubation times were the same at only 10 min. After incubation, the probes were rinsed from the cells. FIGS. 7A and 7B illustrates A431 cells that were incubated with IRDye 700DX-panitumumab or IRDye 700DX-EGF, respectively and thereafter irradiated.
Thus, upon irradiation, the production of singlet oxygen occurred at the cell surface. Typically, the EGF ligand is internalized after binding the EGF receptor.

[5] = tested on: HTB-186 cells; assay: Viability, cell number and microscopy morphology at 20 h post irradiation (Example 10)
Procedure: This example illustrates the ability of IRDye® 700DX small molecule conjugates to induce apoptosis in cells, e.g., cancer cells. In this study HTB-186 cells (a desmoplastic cerebellar medulloblastoma cell line) were treated with IRDye® 700DX small molecule conjugates (IRDye® 700DX labeled chlorotoxin, anti-EGFR Affibody®, RGD peptide and EGF ligand). Apoptosis was measured by evaluating caspase 3/7 activity and mitochondrial membrane potential. Apoptosis can be characterized by a variety of cell morphological and biochemical changes including membrane blebbing, cell shrinkage, alteration of membrane asymmetry and permeability, and/or condensation of chromatin and nucleus (Coleman et al., Nat Cell Biol, 2001, 3(4):339-45, Bortner and Cidlowski, Biochem Pharmacol, 1998, 56(12):1549-59; van Engeland et al., Experimental Cell Research, 1997, 235:421-430).
Microscopy images of cells in petri-dishes were captured at 20 h post irradiation. The images were captured in DIC and 700 nm to visualize the probe, and composite images were generated (DIC+700 nm) to visualize the overlay.
To determine whether the treated cells are undergoing apoptosis, a caspase 3/7 assay and mitochondrial potential assay were performed. All cells from each treatment were recovered and processed accordingly. Table 8 below provides cells number, % viability, JC-1% shift, and % late apoptotic and dead cells as determined by caspase 3/7 assay.

[6] = tested on: A431 cells; assay: VB-48 assay: vitality, viability and necrosis of treatments 1-10 (Table 3); settings: irradiated (I) 32 J/cm^2; RGD 0.5 μM, EGF 0.5 μM, NHSe 5 μM, Pan ~0.1 μM
Procedure: Briefly, A431 cells were labeled with respective probes for specific treatments (listed below); cells were rinsed and evaluated for labeling. The test include the following treatments: […], treatments 3-4 of EGF-IRDye® 700DX at 0.5 μM and radiation, treatments 5-6 of IRDye® 700DX NHSe at 5 μM and radiation, treatments 7-8 of panitumumab-IRDye® 700DX at about 0.1 μM and radiation, treatment 9 of a negative control with no probe and no irradiation, and treatment 10 of RGD-IRDye® 700DX and no irradiation. The probes were incubated for about 10 minutes and with a longer period of about 20 minutes for the RGD probe. The cells were monitored with microscopy and morphology was examination 24 hours post treatment.
Low binding was expected for the RGD probe due to the low level of integrin receptors on A431 cells. […] By 3 hours post-irradiation all treatments except RGD (Treatment 1) show significant cytotoxicity. Vitality, viability and necrosis assays such as a VB-48 assay and JC-1 assay were performed.

[7] = tested on: HTB-186 cells; assay: JC-1 mitochondrial membrane potential assay (Example 10, Table 8); settings: 32 J/cm^2, probe about 5 hours, 20 hours post irradiation; 700DX-RGD and 700DX-EGF 500 nM
Procedure: as §1
In this study a mitochondrial membrane potential assay was performed on cells from treatments 1-8 to determine whether the treated cells underwent apoptosis. […] As JC-1 dye accumulated in mitochondria, its fluorescence emission shifts from green (about 529 nm) to red (about 590 nm). The presence of red fluorescence due to JC-1 aggregate formation corresponds to regions of high mitochondrial polarization. Depolarized mitochondria are indicated by green fluorescence of the JC-1 monomers. A detectable decrease in the red/green fluorescence intensity ratio indicates mitochondrial depolarization, and thus, apoptosis. In a membrane potential assay, cells are incubated with the JC-1 dye and fluorescence is detected by, for example, flow cytometry, fluorescence microscopy, and fluorescence-based image cytometry. […]

[8] = tested on: A431 cells; assay: Caspase 3/7 assay, doses of IRDye 700DX-labeled EGF (Table 4); settings: 0.1 μM, Irradiation about 32 J/cm^2
Procedure: A431 cells were treated with IRDye® 700DX-labeled EGF at a concentration of about 0.1-1 μM for about 8 minutes and irradiated at about 32 J/cm^2.
Briefly, 150,000 cells were plated and incubated overnight at 37° C., 5% CO2. About 1 ml of the probe was added to the appropriate treatments. The cells were rinsed after the incubation period and imaged. The cells were irradiated with a small LED apparatus. The cells were further incubated at 37° C., 5% CO2, and then imaged at 2-3 hours post irradiation. The cells were then harvested and resuspended in 250 μl PBS. The cells were counted in NC-100™ NucleoCounter® (ChemoMetec A/S; Allerod, Denmark). The cells were analyzed according to manufacturer's protocol to perform the caspase3/7 assay (ImmunoChemistry Technologies, LCC, Bloomington, Minn.). NC indicates negative control, e.g., no probe.

[9] = no irradiation (NI), 700DX-EGF 0.5 μM
[10] = 32 J/cm^2, probe about 5 hours, 20 hours post irradiation, 700DX-RGD and 700DX-EGF 500 nM

B1: 700DX-EGF (conjugate, UniProt P01133 23-1207, looked up)
Pro-epidermal growth factor: PQHWSCPEGTLAGNGNSTCVGPAPFLIFSHGNSIFRIDTEGTNYEQLVVDAGVSVIMDFHYNEKRIYWVDLERQLLQRVFLNGSRQERVCNIEKNVSGMAINWINEEVIWSNQQEGIITVTDMKGNNSHILLSALKYPANVAVDPVERFIFWSSEVAGSLYRADLDGVGVKALLETSEKITAVSLDVLDKRLFWIQYNREGSNSLICSCDYDGGSVHISKHPTQHNLFAMSLFGDRIFYSTWKMKTIWIANKHTGKDMVRINLHSSFVPLGELKVVHPLAQPKAEDDTWEPEQKLCKLRKGNCSSTVCGQDLQSHLCMCAEGYALSRDRKYCEDVNECAFWNHGCTLGCKNTPGSYYCTCPVGFVLLPDGKRCHQLVSCPRNVSECSHDCVLTSEGPLCFCPEGSVLERDGKTCSGCSSPDNGGCSQLCVPLSPVSWECDCFPGYDLQLDEKSCAASGPQPFLLFANSQDIRHMHFDGTDYGTLLSQQMGMVYALDHDPVENKIYFAHTALKWIERANMDGSQRERLIEEGVDVPEGLAVDWIGRRFYWTDRGKSLIGRSDLNGKRSKIITKENISQPRGIAVHPMAKRLFWTDTGINPRIESSSLQGLGRLVIASSDLIWPSGITIDFLTDKLYWCDAKQSVIEMANLDGSKRRRLTQNDVGHPFAVAVFEDYVWFSDWAMPSVMRVNKRTGKDRVRLQGSMLKPSSLVVVHPLAKPGADPCLYQNGGCEHICKKRLGTAWCSCREGFMKASDGKTCLALDGHQLLAGGEVDLKNQVTPLDILSKTRVSEDNITESQHMLVAEIMVSDQDDCAPVGCSMYARCISEGEDATCQCLKGFAGDGKLCSDIDECEMGVPVCPPASSKCINTEGGYVCRCSEGYQGDGIHCLDIDECQLGEHSCGENASCTNTEGGYTCMCAGRLSEPGLICPDSTPPPHLREDDHHYSVRNSDSECPLSHDGYCLHDGVCMYIEALDKYACNCVVGYIGERCQYRDLKWWELRHAGHGQQQKVIVVAVCVVVLVMLLLLSLWGAHYYRTQKLLSKNPKNPYEESSRDVRSRRPADTEDGMSSCPQPWFVVIKEHQDLKNGGQPVAGEDGQAADGSMQPTSWRQEPQLCGMGTEQGCWIPVSSDKGSCPQVMERSFHMPSYGTQTLEGGVEKPHSLLSANPLWQQRALDPPHQMELTQ
modifications: Pro-epidermal growth factor IRDye 700DX conjugate
Q: For B1, which “cytotoxicity by cell viability” value ([1]; 24 h post irradiation) is on record?
A: only the probe treated with irradiation induced cytotoxicity

Q: And the “effect on cell morphology” value ([1]; irradiation 16 J/cm^2)?
A: dramatically altered with condensation of nuclei and cell dehydration

Q: And the “effect on cell morphology” value ([1]; no irradiation (NI))?
A: no deleterious effect on cell morphology

Q: What about the “Caspase 3 % late apoptotic + dead cells” value [2] of the same molecule?
A: 46%

Q: What about the “effect on cells (morphology)” value ([3]; irradiated 10 minutes, 32 J/cm^2) of the same molecule?
A: severely affected by the irradiating energy and were dying

Q: And the Cells/mL ([3]; irradiated (I) 10 minutes, 32 J/cm^2, 700DX-EGF 0.5 μM, 700DX-Pan about 0.1 μM)?
A: 2.8 × 10^5 Cells/mL and 4.1 × 10^5 Cells/mL and 3.8 × 10^5 Cells/mL

Q: And the “% Vitality” value [3, 9]?
A: 97.9% and 98.3% and 96.0%

Q: And the Cells/mL [3, 9]?
A: 6.6 × 10^5 Cells/mL and 8.0 × 10^5 Cells/mL and 7.7 × 10^5 Cells/mL

Q: And the VB-48 % necrotic [3, 9]?
A: 11% and 12% and 10%

Q: What about the dead irradiated cells ([4]; 10 min incubation, panitumumab probe about 0.1 μM, EGF probe 0.5 μM, 24 hours post irradiation) of the same molecule?
A: 36%

Q: What about the “necrotic cells after irradiation” value ([4]; irradiation 24 J/cm^2 (figure legend)) of the same molecule?
A: 36%

Q: And the cell morphology ([5]; 32 J/cm^2, 20 h post irradiation)?
A: appeared rounded and smaller

Q: What about the “% Viability” value [5, 10] of the same molecule?
A: 75.7%

Q: And the “Cell #” value [5, 10]?
A: 0.7E6

Q: And the “% Healthy” value [6]?
A: 60%

Q: And the “% Necrotic” value [6]?
A: 20%

Q: What about the Cells/mL [6] of the same molecule?
A: 3.4 × 10^5 Cells/mL

Q: What about the “Est % Viability” value [6] of the same molecule?
A: 60-70%

Q: What about the “Low % Vitality” value [6] of the same molecule?
A: 19%

Q: And the JC-1 % shift [7]?
A: 42%

Q: And the “% Healthy” value [8]?
A: 72%

Q: And the “% Necrotic” value [8]?
A: 10%

Q: What about the Cells/mL [8] of the same molecule?
A: 4.6 × 10^5 Cells/mL
